The values that follow come from publication PMC3984155.

Test [1] has as its target Litopenaeus vannamei Proliferating Cell Nuclear Antigen (Litopenaeus vannamei). The test can be described thus: SEC; purified LvPCNA at 1 mg/ml on a Superdex 200 column, elution compared with known molecular-mass standards. Background: Size exclusion chromatography separates by hydrodynamic size, large species first.
The target is the same in test [2]. The test can be described thus: crystal structure; X-ray, 3 Å, space group C2; crystals from 300 mM CaCl2, 100 mM sodium HEPES pH 7.5, 30% v/v PEG 400; molecular replacement.

In general, stoichiometry N refers to the number of molecules, sites or subunits per partner or assembly. On to “Litopenaeus vannamei Proliferating Cell Nuclear Antigen (natural protein)”, for which the stoichiometry N in test [1] and in test [2] was 3 each time.
